Assay results published in patent publication US10456465B2, “Compositions, kits, and methods for the diagnosis prognosis, monitoring, treatment and modulation of post-transplant lymphoproliferative disorders and hypoxia associated angiogenesis disorders using galectin-1” (Dana-Farber Cancer Institute, Inc., priority 2009, dated 2019).

T1: Gal8 (Homo sapiens, UniProt O00214)
T1 construct: made in house
T1 sequence (O00214 1-317): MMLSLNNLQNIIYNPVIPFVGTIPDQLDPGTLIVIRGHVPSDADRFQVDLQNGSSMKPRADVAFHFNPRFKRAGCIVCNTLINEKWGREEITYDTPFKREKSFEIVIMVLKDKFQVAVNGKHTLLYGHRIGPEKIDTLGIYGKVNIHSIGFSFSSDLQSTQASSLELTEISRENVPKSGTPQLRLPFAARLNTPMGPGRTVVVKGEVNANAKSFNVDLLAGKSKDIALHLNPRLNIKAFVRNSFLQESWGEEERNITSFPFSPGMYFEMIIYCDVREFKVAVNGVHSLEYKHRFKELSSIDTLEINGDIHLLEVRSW

B1: anti-Gal1 monoclonal antibody 8F4F8G7 (antibody, V domains shown)
VH: EVQLQQSVAEFVRPGASVRLSCTASGFNIKNTYIHWVRQRPEQGLEWIGKIDPANGNTKYVPEFQGKATMTADTSSNTVYLHLSSLTSEDTAIYYCVDGYYGWYFAVWGTGTTVTVSS
VL: QAVVTQESALTTSPGETVTLTCRSSTGAVTTSNYANWVQEKPDHLFTGLIGATNNRAPGVPARFSGSLIGDKAVLTITGAQTEDEAIYFCALWYRNHFIFGSGTKVTVL
notes: Murine hybridoma mAb (deposit PTA-10535), lambda light chain; also called 14-19 8F4-F8-G7; clone 8F4.8F.67

Tests used:
Gal1 = molecular target: T2, Gal1 (Homo sapiens, UniProt P09382); experiment: Binding of 488-Gal1 to HUVEC
T2 construct: made in house
T2 sequence (P09382 whole entry): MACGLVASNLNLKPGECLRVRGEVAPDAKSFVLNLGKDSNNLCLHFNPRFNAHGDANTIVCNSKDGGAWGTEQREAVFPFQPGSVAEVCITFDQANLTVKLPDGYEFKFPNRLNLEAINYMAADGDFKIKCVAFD
Protocol: (§1) For glycophenotyping, ECs were incubated with biotinylated L-PHA, LEL, SNA, MAL II, PNA and HPA (all from Vector). Recombinant Gal1 was purified as described in Ilarregui et al. (2009) Nat Immunol 10, 981-991. For binding assays, ECs were incubated for 1 h at 4° C. with dyLight 488-labeled galectins in the absence or presence of lactose, sucrose, anti-Gal1 or isotype control mAb or following transfection with GnT5, GCNT1 or scrambled siRNA. Cells were analyzed on a FACSAria (BD Biosciences). For segregation, ECs were treated with Gal1 for 1 h, fixed and incubated for 1 h with anti-human VEGFR2 antibody (55B11; Cell Signaling) as described in Ilarregui et al. (2009) Nat Immunol 10, 981-991. Cells were analyzed on a Nikon laser confocal microscope (Eclipse E800).
DyLight 488-conjugated Gal1 (488-Gal1) was obtained using DyLight labeling kit (Thermo Scientific). Inhibitors of Jak2-STAT3 (AG490; 5 μM), Jnk-SAP (SP600125; 20 μM), p38 (SB202190; 10 μM), HIF-1α (3 μM) and O-glycosylation (benzyl-α-Ga1NAc; 2 mM) were from Calbiochem. Inhibitors of Erk1/2 (U0126; 5 μM), PI(3)K-Akt (Ly294002; 2 μM) and NF-κB (BAY 11-7082; 1 μM), ROS (N-acetyl-cysteine; NAC), N-glycosylation (swainsonine; 3 μM), lactose or sucrose (30 mM) were from Sigma. PNGase F (25 U/μg protein) was from New England Biolabs. Recombinant cytokines including IL-10 (50 ng/ml), IL-17 (5 ng/ml), TGF-β1 (3 ng/ml), IFN-γ (50 ng/ml), VEGF (20 ng/ml), bFGF (10 ng/ml) were from R&D. TNF (20 ng/ml) was from Sigma. Biotinylated lectins, including L-PHA (2 μg/ml), LEL (1 μg/ml), SNA (5 μg/ml), MAL II (10 μg/ml), PNA (10 μg/ml) and HPA (10 μg/ml) were purchased from Vector Labs and incubated in buffer containing 150 mM NaCl, 10 mM HEPES and 1% BSA (Sigma). ON-TARGETplus SMART siRNA pools against GnT5, GCNT1, VEGFR2, NRP-1, VEGF, HIF-1α and scrambled were obtained from Dharmacon. Transfections were performed by Lipofectamine-RNAiMAX (Invitrogen) following manufacturer's directions. Recombinant Gal3 and Gal8 were purified as described in Acosta-Rodriguez et al. (2004) J Immunol 172, 493-502 and Cardenas Delgado et al. (2010) FASEB J [Epub ahead of print].

HUVEC [1] = experiment: HUVEC migration (transwell); format: cell-based, human
Protocol: (§2) HUVEC transfected or not with specific siRNA or pre-incubated with signaling pathway inhibitors were exposed to VEGF or Gal1 with or without lactose, sucrose, 8F4F8G7 mAb or control isotype (IgG1κ) or specific antibodies for VEGFR1 (AP-MAB0702; Abcam), VEGFR2 (AF357; R&D), VEGFR3 (AB89501; Abcam) or VEGF (MAB293; R&D). Cells were processed for proliferation, migration, invasion and tube formation assays. Tumor-associated blood vessels were identified by flow cytometry using Alexa Fluor 647-conjugated anti-CD34 antibody (RAM34; eBioscience).
(§3) The formation of capillary-like tubular structures was assessed in Matrigel-coated plates essentially as described in Albini et al. (2001), Cancer Res 61, 8171-8178. In brief, HUVEC (3×10^4 cells/ml) transfected or not with specific siRNA or pre-incubated with signaling pathway inhibitors were seeded on Matrigel with our without Gal1 (0.1 to 3 μM) or VEGF (20 ng/ml) with or without lactose, sucrose, 8F4F8G7 mAb (0.5 μM) or isotype control (IgG1K) or blocking antibodies specific for VEGFR1 (5 μg/ml), VEGFR2 (2 μg/ml), VEGFR3 (10 μg/ml) or VEGF (10 μg/ml). Cells were incubated at 37° C. for periods ranging from 0 to 24 h and were visualized by phase-contrast microscopy. In another set of experiments, conditioned medium from hypoxic or normoxic KS cells infected or not with a retroviral vector containing Gal1 shRNA was assessed on HUVEC transfected or not with GnT5, GCNT1 or scr siRNA (100 nM). Capillary-like tubular structures were scored by counting the number of tubules (closed areas) per well in a phase-contrast microscope (Nikon E-100). For migration assays, HUVEC (4×10^4/well) transfected or not with specific siRNA were resuspended in M199 medium supplemented with 1% FCS. Cells were placed into the top chamber of the insert while the bottom well was filled with Gal1 or VEGF in the absence or presence of lactose, sucrose, 8F4F8G7 mAb or isotype control. After 24 hours, inserts were stained with crystal violet (Sigma) and analyzed in an inverted microscope. For each filter, 4 images were collected and cells were counted with the ImageJ software v1.34 (NIH).

HUVEC [2] = experiment: HUVEC capillary tube formation on Matrigel; format: cell-based, human
Protocol: as §2, §3

HUVEC [3] = experiment: HUVEC proliferation ([3H]thymidine incorporation); format: cell-based, human
Protocol: as §2
For proliferation assays, HUVEC that were transfected or not with specific siRNA and cultured in complete M199 medium were trypsinized, harvested and seeded in 96-well microtiter plates (1×10^3 cells/well). Cells were pre-incubated for 1 hour at 37° C. with lactose, sucrose or signaling pathway inhibitors and then exposed to Gal1. After 24 hours, cells were incubated for an additional 24 hours in the presence of 0.8 μCi [^3H]-thymidine (NEN Dupont). Cells were then harvested and radioactivity was measured in a 1414 Liquid Scintillation Counter (Perkin Elmer).

Gal8 = molecular target: T1, Gal8; experiment: Binding of 488-Gal8 to HUVEC; conditions: 488-Gal8 20 μg/ml, mAb 0.5 μM
Protocol: as §1
DyLight 488-conjugated Gal1 (488-Gal1) was obtained using DyLight labeling kit (Thermo Scientific). Inhibitors of Jak2-STAT3 (AG490; 5 μM), Jnk-SAP (SP600125; 20 μM), p38 (SB202190; 10 μM), HIF-1α (3 μM) and O-glycosylation (benzyl-α-Ga1NAc; 2 mM) were from Calbiochem. Inhibitors of Erk1/2 (U0126; 5 μM), PI(3)K-Akt (Ly294002; 2 μM) and NF-κB (BAY 11-7082; 1 μM), ROS (N-acetyl-cysteine; NAC), N-glycosylation (swainsonine; 3 μM), lactose or sucrose (30 mM) were from Sigma. PNGase F (25 U/μg protein) was from New England Biolabs. […]

Row | Molecule | binding of fluorescently-labeled Gal1 to ECs (Gal1; flow cytometry) | EC migration (HUVEC [1]; HUVEC treated with Gal1) | formation of three-dimensional tubular networks (HUVEC [2]; HUVEC treated with Gal1) | EC proliferation (HUVEC [3]; HUVEC treated with Gal1) | effect on binding of Gal1 to ECs (Gal1; lactose/sucrose 30 mM, swainsonine 3 μM, benzyl-α-GalNAc 2 mM, mAb 0.5 μM) | effect on binding of Gal8 to the EC surface (Gal8) | effect on Gal1-induced EC migration (HUVEC [1]; induced by Gal1) | effect on EC migration in the absence of exogenous Gal1 (HUVEC [1]; no exogenous Gal1) | effect on Gal1-induced capillary tube formation (HUVEC [2]; induced by Gal1) | effect on tube formation in the absence of exogenous Gal1 (HUVEC [2]; no exogenous Gal1) | effect on Gal1-induced EC proliferation (HUVEC [3]; induced by Gal1)
1 | rGal1: recombinant human galectin-1 | bound to ECs in a dose- and carbohydrate-dependent fashion | elicited | at levels similar to those attained by VEGF | elicited |  |  |  |  |  |  | 
2 | B1 |  |  |  |  | prevented | did not interfere | prevent | did not alter | prevent | did not alter | prevent
